The record followed here is publication PMC11317151, “DNA binding and bridging by human CtIP in the healthy and diseased states” (Nucleic Acids Research, 2023).

Data set [1] concerns the molecule itself. The data set can be described thus: SEC-MALS; Superose 6 10/300; samples of 0.5–1 mg/ml injected; 20 mM Tris–Cl pH 8.0, 200 mM NaCl, 0.5 mM TCEP.
Data set [2] concerns the molecule itself. Put plainly: native gel or EMSA; native blue PAGE of purified CtIP proteins, compared with the wild type (tetramer) and CtIP-L27E (dimer) reference proteins.

The stoichiometry N is the number of molecules, sites or subunits per partner or assembly.

B1: CtIP ΔN541 (domain or fragment, human, UniProt Q99708 541-897, looked up)
chain: GNCTLPKDSPGEPCSQECIILQPLNKCSPDNKPSLQIKEENAVFKIPLRPRESLETENVLDDIKSAGSHEPIKIQTRSDHGGCELASVLQLNPCRTGKIKSLQNNQDVSFENIQWSIDPGADLSQYKMDVTVIDTKDGSQSKLGGETVDMDCTLVSETVLLKMKKQEQKGEKSSNEERKMNDSLEDMFDRTTHEEYESCLADSFSQAADEEEELSTATKKLHTHGDKQDKVKQKAFVEPYFKGDERETSLQNFPHIEVVRKKEERRKLLGHTCKECEIYYADMPAEEREKKLASCSRHRFRYIPPNTPENFWEVGFPSTQTCMERGYIKEDLDPCPRPKRRQPYNAIFSPKGKEQKT
notes: CtIP, human, the first 540 amino acids removed (begins at residue 541); a and b are two SEC fractions (dimer and monomer peaks) of the same preparation; No tag cleavage is described in its purification; also called ΔN541a; ΔN541b; source: High-Five insect cells (baculovirus), purified (StrepTactin, MonoQ, Superose 6 SEC)
Consider B1, for which the “stoichiometry N” value in data set [1] is 2.

B2: CtIP ΔC782 (domain or fragment, human, UniProt Q99708 1-782, looked up)
chain: MNISGSSCGSPNSADTSSDFKDLWTKLKECHDREVQGLQVKVTKLKQERILDAQRLEEFFTKNQQLREQQKVLHETIKVLEDRLRAGLCDRCAVTEEHMRKKQQEFENIRQQNLKLITELMNERNTLQEENKKLSEQLQQKIENDQQHQAAELECEEDVIPDSPITAFSFSGVNRLRRKENPHVRYIEQTHTKLEHSVCANEMRKVSKSSTHPQHNPNENEILVADTYDQSQSPMAKAHGTSSYTPDKSSFNLATVVAETLGLGVQEESETQGPMSPLGDELYHCLEGNHKKQPFEESTRNTEDSLRFSDSTSKTPPQEELPTRVSSPVFGATSSIKSGLDLNTSLSPSLLQPGKKKHLKTLPFSNTCISRLEKTRSKSEDSALFTHHSLGSEVNKIIIQSSNKQILINKNISESLGEQNRTEYGKDSNTDKHLEPLKSLGGRTSKRKKTEEESEHEVSCPQASFDKENAFPFPMDNQFSMNGDCVMDKPLDLSDRFSAIQRQEKSQGSETSKNKFRQVTLYEALKTIPKGFSSSRKASDGNCTLPKDSPGEPCSQECIILQPLNKCSPDNKPSLQIKEENAVFKIPLRPRESLETENVLDDIKSAGSHEPIKIQTRSDHGGCELASVLQLNPCRTGKIKSLQNNQDVSFENIQWSIDPGADLSQYKMDVTVIDTKDGSQSKLGGETVDMDCTLVSETVLLKMKKQEQKGEKSSNEERKMNDSLEDMFDRTTHEEYESCLADSFSQAADEEEELSTATKKLHTHGDKQDKVKQKAFVEPYFK
notes: designed to be equivalent to the deletion of Seckel-2 syndrome; also called ΔC782 CtIP; Seckel-2 variant
In the case of B2, the “stoichiometry N” value in data set [1] turned out to be 4.

B3: CtIP ΔC608 (domain or fragment, human, UniProt Q99708 1-608, looked up)
chain: MNISGSSCGSPNSADTSSDFKDLWTKLKECHDREVQGLQVKVTKLKQERILDAQRLEEFFTKNQQLREQQKVLHETIKVLEDRLRAGLCDRCAVTEEHMRKKQQEFENIRQQNLKLITELMNERNTLQEENKKLSEQLQQKIENDQQHQAAELECEEDVIPDSPITAFSFSGVNRLRRKENPHVRYIEQTHTKLEHSVCANEMRKVSKSSTHPQHNPNENEILVADTYDQSQSPMAKAHGTSSYTPDKSSFNLATVVAETLGLGVQEESETQGPMSPLGDELYHCLEGNHKKQPFEESTRNTEDSLRFSDSTSKTPPQEELPTRVSSPVFGATSSIKSGLDLNTSLSPSLLQPGKKKHLKTLPFSNTCISRLEKTRSKSEDSALFTHHSLGSEVNKIIIQSSNKQILINKNISESLGEQNRTEYGKDSNTDKHLEPLKSLGGRTSKRKKTEEESEHEVSCPQASFDKENAFPFPMDNQFSMNGDCVMDKPLDLSDRFSAIQRQEKSQGSETSKNKFRQVTLYEALKTIPKGFSSSRKASDGNCTLPKDSPGEPCSQECIILQPLNKCSPDNKPSLQIKEENAVFKIPLRPRESLETENVLDDIKSAGS
notes: designed to be equivalent to the deletion of Jawad syndrome; also called ΔC608 CtIP; Jawad variant
B3: the “stoichiometry N” value in data set [1] was 4.

B4: CtIP-L27E (natural protein, human, UniProt Q99708 1-897, looked up)
chain: MNISGSSCGSPNSADTSSDFKDLWTKEKECHDREVQGLQVKVTKLKQERILDAQRLEEFFTKNQQLREQQKVLHETIKVLEDRLRAGLCDRCAVTEEHMRKKQQEFENIRQQNLKLITELMNERNTLQEENKKLSEQLQQKIENDQQHQAAELECEEDVIPDSPITAFSFSGVNRLRRKENPHVRYIEQTHTKLEHSVCANEMRKVSKSSTHPQHNPNENEILVADTYDQSQSPMAKAHGTSSYTPDKSSFNLATVVAETLGLGVQEESETQGPMSPLGDELYHCLEGNHKKQPFEESTRNTEDSLRFSDSTSKTPPQEELPTRVSSPVFGATSSIKSGLDLNTSLSPSLLQPGKKKHLKTLPFSNTCISRLEKTRSKSEDSALFTHHSLGSEVNKIIIQSSNKQILINKNISESLGEQNRTEYGKDSNTDKHLEPLKSLGGRTSKRKKTEEESEHEVSCPQASFDKENAFPFPMDNQFSMNGDCVMDKPLDLSDRFSAIQRQEKSQGSETSKNKFRQVTLYEALKTIPKGFSSSRKASDGNCTLPKDSPGEPCSQECIILQPLNKCSPDNKPSLQIKEENAVFKIPLRPRESLETENVLDDIKSAGSHEPIKIQTRSDHGGCELASVLQLNPCRTGKIKSLQNNQDVSFENIQWSIDPGADLSQYKMDVTVIDTKDGSQSKLGGETVDMDCTLVSETVLLKMKKQEQKGEKSSNEERKMNDSLEDMFDRTTHEEYESCLADSFSQAADEEEELSTATKKLHTHGDKQDKVKQKAFVEPYFKGDERETSLQNFPHIEVVRKKEERRKLLGHTCKECEIYYADMPAEEREKKLASCSRHRFRYIPPNTPENFWEVGFPSTQTCMERGYIKEDLDPCPRPKRRQPYNAIFSPKGKEQKT
notes: CtIP, human, with the point mutation L27E in the N-terminal tetramerisation interface; Probably made like the wild type (insect cells, StrepII tag)
For the protein B4, the binding result in data set [2] is “binds”.

B5: Wild type CtIP (natural protein, human, UniProt Q99708 1-897, looked up)
chain: MNISGSSCGSPNSADTSSDFKDLWTKLKECHDREVQGLQVKVTKLKQERILDAQRLEEFFTKNQQLREQQKVLHETIKVLEDRLRAGLCDRCAVTEEHMRKKQQEFENIRQQNLKLITELMNERNTLQEENKKLSEQLQQKIENDQQHQAAELECEEDVIPDSPITAFSFSGVNRLRRKENPHVRYIEQTHTKLEHSVCANEMRKVSKSSTHPQHNPNENEILVADTYDQSQSPMAKAHGTSSYTPDKSSFNLATVVAETLGLGVQEESETQGPMSPLGDELYHCLEGNHKKQPFEESTRNTEDSLRFSDSTSKTPPQEELPTRVSSPVFGATSSIKSGLDLNTSLSPSLLQPGKKKHLKTLPFSNTCISRLEKTRSKSEDSALFTHHSLGSEVNKIIIQSSNKQILINKNISESLGEQNRTEYGKDSNTDKHLEPLKSLGGRTSKRKKTEEESEHEVSCPQASFDKENAFPFPMDNQFSMNGDCVMDKPLDLSDRFSAIQRQEKSQGSETSKNKFRQVTLYEALKTIPKGFSSSRKASDGNCTLPKDSPGEPCSQECIILQPLNKCSPDNKPSLQIKEENAVFKIPLRPRESLETENVLDDIKSAGSHEPIKIQTRSDHGGCELASVLQLNPCRTGKIKSLQNNQDVSFENIQWSIDPGADLSQYKMDVTVIDTKDGSQSKLGGETVDMDCTLVSETVLLKMKKQEQKGEKSSNEERKMNDSLEDMFDRTTHEEYESCLADSFSQAADEEEELSTATKKLHTHGDKQDKVKQKAFVEPYFKGDERETSLQNFPHIEVVRKKEERRKLLGHTCKECEIYYADMPAEEREKKLASCSRHRFRYIPPNTPENFWEVGFPSTQTCMERGYIKEDLDPCPRPKRRQPYNAIFSPKGKEQKT
notes: CtIP, human DNA repair factor, wild type, full length; the tag was probably cleaved from the wild type too; also called WT-CtIP; CtIP-WT
For B5, the “stoichiometry N” value in data set [1] is 4.

B6: CtIP-R100W (natural protein, human, UniProt Q99708 1-897, looked up)
chain: MNISGSSCGSPNSADTSSDFKDLWTKLKECHDREVQGLQVKVTKLKQERILDAQRLEEFFTKNQQLREQQKVLHETIKVLEDRLRAGLCDRCAVTEEHMWKKQQEFENIRQQNLKLITELMNERNTLQEENKKLSEQLQQKIENDQQHQAAELECEEDVIPDSPITAFSFSGVNRLRRKENPHVRYIEQTHTKLEHSVCANEMRKVSKSSTHPQHNPNENEILVADTYDQSQSPMAKAHGTSSYTPDKSSFNLATVVAETLGLGVQEESETQGPMSPLGDELYHCLEGNHKKQPFEESTRNTEDSLRFSDSTSKTPPQEELPTRVSSPVFGATSSIKSGLDLNTSLSPSLLQPGKKKHLKTLPFSNTCISRLEKTRSKSEDSALFTHHSLGSEVNKIIIQSSNKQILINKNISESLGEQNRTEYGKDSNTDKHLEPLKSLGGRTSKRKKTEEESEHEVSCPQASFDKENAFPFPMDNQFSMNGDCVMDKPLDLSDRFSAIQRQEKSQGSETSKNKFRQVTLYEALKTIPKGFSSSRKASDGNCTLPKDSPGEPCSQECIILQPLNKCSPDNKPSLQIKEENAVFKIPLRPRESLETENVLDDIKSAGSHEPIKIQTRSDHGGCELASVLQLNPCRTGKIKSLQNNQDVSFENIQWSIDPGADLSQYKMDVTVIDTKDGSQSKLGGETVDMDCTLVSETVLLKMKKQEQKGEKSSNEERKMNDSLEDMFDRTTHEEYESCLADSFSQAADEEEELSTATKKLHTHGDKQDKVKQKAFVEPYFKGDERETSLQNFPHIEVVRKKEERRKLLGHTCKECEIYYADMPAEEREKKLASCSRHRFRYIPPNTPENFWEVGFPSTQTCMERGYIKEDLDPCPRPKRRQPYNAIFSPKGKEQKT
notes: CtIP, human, with the point mutation R100W that is associated with Seckel-like disease and early onset breast cancer; Expected tetramer mass is printed as 404 kDa, as for the wild type; also called R100W CtIP; source: insect cells (baculovirus, pACEBac1), purified
With B6, in data set [1], the “stoichiometry N” value was found to be 4.

B7: CtIP ΔN500 (domain or fragment, human, UniProt Q99708 500-897, looked up)
chain: IQRQEKSQGSETSKNKFRQVTLYEALKTIPKGFSSSRKASDGNCTLPKDSPGEPCSQECIILQPLNKCSPDNKPSLQIKEENAVFKIPLRPRESLETENVLDDIKSAGSHEPIKIQTRSDHGGCELASVLQLNPCRTGKIKSLQNNQDVSFENIQWSIDPGADLSQYKMDVTVIDTKDGSQSKLGGETVDMDCTLVSETVLLKMKKQEQKGEKSSNEERKMNDSLEDMFDRTTHEEYESCLADSFSQAADEEEELSTATKKLHTHGDKQDKVKQKAFVEPYFKGDERETSLQNFPHIEVVRKKEERRKLLGHTCKECEIYYADMPAEEREKKLASCSRHRFRYIPPNTPENFWEVGFPSTQTCMERGYIKEDLDPCPRPKRRQPYNAIFSPKGKEQKT
notes: CtIP, human, the first 499 amino acids removed (begins at residue 500); a and b are two SEC fractions (dimer and monomer peaks) of the same preparation; also called ΔN500a; ΔN500b; source: High-Five insect cells (baculovirus), purified (StrepTactin, MonoQ, Superose 6 SEC); not shown: StrepII, C-terminal, kept
Take B7: the “stoichiometry N” value in data set [1] is 2.
